Measurements taken from PMC5430633, “Phosphorylation of the mitochondrial autophagy receptor Nix enhances its interaction with LC3 proteins” (Scientific Reports, 2017).

B1: Nix LIR P0 peptide (unphosphorylated) (peptide)
peptide: AGLNSSWVELPMNSSNG
notes: Nix LIR motif peptide without phosphorylation of Ser34 and Ser35; also called non-phosphorylated P0 peptide; source: synthetic peptide, bought: GenScript USA Inc, 95% pure
B2: p62 LIR peptide (peptide)
chain: RPEEQMESDNCSGGDDDWTHLS

How the values were obtained:
Details in all cases: both partners purified
[1] = target: LC3B wild type (for ITC and NMR) (human, UniProt Q9GZQ8 1-120); experiment: ITC; 25 °C, VP-ITC; peptides 0.31 mM titrated into 0.018 mM LC3B proteins in 25 steps; 40 mM Na2HPO4, 80 mM NaCl, pH 7.0; one-site binding model
[2] = target: T1, LC3B wild type (for ITC and NMR) (human, UniProt Q9GZQ8 1-120); experiment: ITC; rows marked WT*: previous set of conditions reported by Novak et al.: 50 mM NaPi, 150 mM NaCl, pH 7.5
[3] = target: T1, LC3B wild type (for ITC and NMR); experiment: ITC; 25 °C, VP-ITC; peptides 0.31 mM titrated into 0.018 mM LC3B proteins in 25 steps; 40 mM Na2HPO4, 80 mM NaCl, pH 7.0; one-site binding model; remark: listed apart in the source
LC3B R11A (for ITC) = LC3B R11A (for ITC) (human, UniProt Q9GZQ8 1-120, R11A); experiment: as above
LC3B K49A (for ITC) = LC3B K49A (for ITC) (human, UniProt Q9GZQ8 1-120, K49A); experiment: as above
LC3B K51A (for ITC) = LC3B K51A (for ITC) (human, UniProt Q9GZQ8 1-120, K51A); experiment: as above

Row | Binder | Kd [1] | Ka [2] | Kd [2] | dH [2] | stoichiometry N [2] | Ka [3] | Kd [3] | dH [3] | stoichiometry N [3] | Ka (LC3B R11A (for ITC)) | Kd (LC3B R11A (for ITC)) | dH (LC3B R11A (for ITC)) | stoichiometry N (LC3B R11A (for ITC)) | Ka (LC3B K49A (for ITC)) | Kd (LC3B K49A (for ITC)) | dH (LC3B K49A (for ITC)) | stoichiometry N (LC3B K49A (for ITC)) | Ka (LC3B K51A (for ITC)) | Kd (LC3B K51A (for ITC)) | dH (LC3B K51A (for ITC))
1 | B1 | 99 µM |  |  |  |  |  |  |  |  |  |  |  |  |  |  |  |  |  |  | 
2 | B2 |  | 680000 M⁻¹ | 1.47 µM | -10.5 ± 0.13 kcal/mol | 0.99 ± 0.01 | 498000 M⁻¹ | 2.01 µM | -9.38 ± 0.17 kcal/mol | 1.04 ± 0.01 | 233000 M⁻¹ | 4.29 µM | -8.22 ± 0.23 kcal/mol | 1.06 ± 0.02 | 1.02e+06 M⁻¹ | 0.98 µM | -10.84 ± 0.01 kcal/mol | 0.99 ± 0.01 | 34000 M⁻¹ | 29 µM | -4.7 ± 0.01 kcal/mol
